From US20040131678A1, “Resorbable bone cement containing active agents” (priority 2001, published 2004)

Columns and labels:
[1] = Release kinetics of bone growth factor and antimicrobial peptide from cement pellets into culture medium; assay type: physicochemical; settings: for cumulative release of TGFβ, of the original amount mixed in the cement: ELISA
Experimental: The release kinetics of the bone growth factor and of the antimicrobial peptide from bone substitute have been determined as follows:
In the release experiments the cement powder (40 mg) was mixed on a glass plate with TGFβ-containing liquid (13.3 μl), giving a paste of 53 mg cement with 133 ng TGFβ and 250 μg DHVAR 5. After 1 min of mixing the cement paste was applied into a Teflon mould with a diameter of 5 mm and measuring 1 mm in height. After 2 min the cement pellets were removed from the mould and added to the wells of 12-well culture plates (Costar, Cambridge, Mass., USA). Complete culture medium (Dulbecco's modified Eagle's medium (DMEM, Gibco-BRL Life Technologies Ltd. Paisley, UK) with 10% fetal bovine serum (FBS; Gibco) was added at 1 ml per well, to wells containing a TGFβ DHVAR5 enriched cement pellet as described above. The multiwell plates were incubated at 37° C. in 5% CO2 and 95% humidity. Culture medium was renewed completely at suitable time intervals (0.5, 1, 2, 4, 24, 48 hr and 1, 2, 4 and 8 weeks), and the medium samples were stored at −20° C. until used for TGFβ and DHVAR 5 determination. TGFβ was determined in the collected culture medium samples using a commercially available enzyme-linked immunosorbant assay (ELISA) (Promega, Madison, Wis., USA). A few cement pellets were crushed in the well with a mortar at 48 hr, after removal of the medium. The fragments were incubated in fresh medium for 1 hr; medium was then removed and stored for DHVAR5 and TGFβ determination. The amount of DHVAR5 released was determined by subjecting medium samples to capillary zone electrophoresis. Biological activity against S. aureus was confirmed in a standard killing assay. TGFβ was assayed by standard immunological analysis and by examination of the potency to promote cell growth as described above. The release of TGFβ from a cement pellet that incorporated TGFβ and DHVAR5 (133 ng TGFβ and 250 μg DHVAR 5 in 53 mg cement) at the time of setting of the cement, is shown in FIGS. 3 and 4 respectively. A rapid TGFβ release was found in the first 4 hr followed by a much slower release. The cumulative release found after 4 hr was 0.5% of the original amount of TGFβ mixed in the cement and increased to 1% after 48 hr. Release of TGFβ continued slowly hereafter, with maximal 0.1% released during the next 8 weeks (data not shown).
Similar results were obtained with peptides of Seq. ID Nos. 1-3, 5-7.

[2] = system: S. aureus; assay: Standard killing assay of released peptide; assay type: cell-based; settings: medium samples from release experiment
Experimental: In the release experiments the cement powder (40 mg) was mixed on a glass plate with TGFβ-containing liquid (13.3 μl), giving a paste of 53 mg cement with 133 ng TGFβ and 250 μg DHVAR 5. After 1 min of mixing the cement paste was applied into a Teflon mould with a diameter of 5 mm and measuring 1 mm in height. After 2 min the cement pellets were removed from the mould and added to the wells of 12-well culture plates (Costar, Cambridge, Mass., USA). Complete culture medium (Dulbecco's modified Eagle's medium (DMEM, Gibco-BRL Life Technologies Ltd. Paisley, UK) with 10% fetal bovine serum (FBS; Gibco) was added at 1 ml per well, to wells containing a TGFβ DHVAR5 enriched cement pellet as described above. The multiwell plates were incubated at 37° C. in 5% CO2 and 95% humidity. Culture medium was renewed completely at suitable time intervals (0.5, 1, 2, 4, 24, 48 hr and 1, 2, 4 and 8 weeks), and the medium samples were stored at −20° C. until used for TGFβ and DHVAR 5 determination. TGFβ was determined in the collected culture medium samples using a commercially available enzyme-linked immunosorbant assay (ELISA) (Promega, Madison, Wis., USA). A few cement pellets were crushed in the well with a mortar at 48 hr, after removal of the medium. […] The amount of DHVAR5 released was determined by subjecting medium samples to capillary zone electrophoresis. […]

Question: For gentamicin [reference compound], which “release kinetics from cement” value ([1]; in a similar test) is on record?
Answer: incomplete and slow release kinetics

Question: Which results are given for “LLLFLLKKRKKRKY [DHVAR-5, anti-microbial peptide, synthetic derivative based on histatin 5 carboxyterminal]”?
Answer: Biological activity against S. aureus of released peptide [2]: confirmed; antimicrobial peptide released from the cement material ([1]; after 4 days): more than 80%; release of DHVAR 5 from the cement material ([1]; within 48 hours, capillary zone electrophoresis, DMEM with 10% FBS, 37° C.): 70%

Question: With TGFβ as the substance, how does the “cumulative release of TGFβ, of the original amount mixed in the cement” value ([1]; after 4 hr, cement pellet 133 ng TGFβ and 250 μg DHVAR 5 in 53 mg cement, DMEM with 10% FBS, 37° C.) read?
Answer: 0.5%

Question: And the “cumulative release of TGFβ, of the original amount mixed in the cement” value ([1]; after 48 hr, same pellet, DMEM with 10% FBS, 37° C.)?
Answer: 1%

Question: And the “TGFβ released during the next 8 weeks” value ([1]; after the first 48 hr, maximal, data not shown)?
Answer: ≤ 0.1%

Question: What about the “TGFβ released within 1 hr after fragmentation” value ([1]; pellets fragmented at 48 hr, fresh medium 1 hr, data not shown) of the same substance?
Answer: approximately 0.5%
